In patent US20230242634A1 one finds IC50 (M), TNF-α-mediated killing of L929 cells (CCK-8) data, which are given here for one substance.

The target in the experiment is human TNF-α (human) (UniProt P01375). The experiment is described as follows: cell-based or functional assay.
Sequence of UniProt P01375 (P01375 77-233 limits assumed): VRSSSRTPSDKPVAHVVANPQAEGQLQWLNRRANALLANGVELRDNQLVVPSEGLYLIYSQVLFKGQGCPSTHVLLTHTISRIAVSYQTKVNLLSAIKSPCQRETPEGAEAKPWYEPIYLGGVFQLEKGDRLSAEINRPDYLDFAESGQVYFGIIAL

“TA001 (the original Adalimumab) (antibody)” yielded an IC50 (M), TNF-α-mediated killing of L929 cells (CCK-8) of 1.48e-08 M.
